Where “and” joins values, the source holds several entries; their conditions need not be identical. Identical values can stand only once.
Biological target: the molecule itself
Test: SDS-PAGE and immunoblot (SDS-resistant forms); ghosts of healthy and infected RBCs in 5P8 buffer, solubilised in 1% Triton X-100, denaturing SDS-PAGE, immunoblot; oligomeric state read from the size of the bands

B1: TranSlocator PrOtein 2 (TSPO2) (natural protein, human (endogenous in red blood cells), UniProt Q5TGU0 1-170, looked up)
chain: MRLQGAIFVLLPHLGPILVWLFTRDHMSGWCEGPRMLSWCPFYKVLLLVQTAIYSVVGYASYLVWKDLGGGLGWPLALPLGLYAVQLTISWTVLVLFFTVHNPGLALLHLLLLYGLVVSTALIWHPINKLAALLLLPYLAWLTVTSALTYHLWRDSLCPVHQPQPTEKSD
notes: TSPO2, human, second TSPO isoform, endogenous in mature red blood cells; detected with a rabbit antibody against the 13 C-terminal residues of hTSPO2; also called hTSPO2; source: endogenous, human red blood cell membranes (ghosts) or Triton X-100 lysate of healthy and P. falciparum-infected RBCs
stoichiometry N: 4 and 2
